Assay [1] deals with wild-type HexaPro (D614) SARS-CoV-2 spike trimer (SARS-CoV-2). Briefly: BLI; Octet Red384; […]; analyte ([…]; HBS-EP+ buffer; 1:1 binding model. (In general: Biolayer interferometry detects binding as a change in optical thickness at a sensor tip.)
For assay [2] the target is unchanged. Described as above. This is another data set of the same source.

Read-outs that look alike come from different tables or passages of the source.

Regarding “cilgavimab (AZD1061), full-length IgG (antibody)”, the equilibrium dissociation constant (Kd) is below 0.001 nM in assay [1] and 0.669 nM in assay [2].

One may read the Kd as a measure of binding affinity in units of concentration. Higher therefore signals a looser complex.

The values above are taken from article PMC9704045.
